# Measurements reported in patent US20210252040.
# Target: α-enolase of Enterococcus faecalis V583, surface-expressed
protein,measurement,value
human glu-plasminogen (Haematologic technologies) (protein) KVYLSECKTGNGKNYRGTMSKTKNGITCQKWSSTSPHRPRFSPATHPSEGLEENYCRNPDNDPQGPWCYTTDPEKRYDYCDILECEEECMHCSGENYDGKISKTMSGLECQAWDSQSPHAHGYIPSKFPNKNLKKNYCRNPDRELRPWCFTTDPNKRWELCDIPRCTTPPPSSGPTYQCLKGTGENYRGNVAVTVSGHTCQHWSAQTPHTHNRTPENFPCKNLDENYCRNPDGKRAPWCHTTNSQVRWEYCKIPSCDSSPVSTEQLAPTAPPELTPVVQDCYHGDGQSYRGTSSTTTTGKKCQSWSSMTPHRHQKTPENYPNAGLTMNYCRNPDADKGPWCFTTDPSVRWEYCNLKKCSGTEASVVAPPPVVLLPDVETPSEEDCMFGNGKGYRGKRATTVTGTPCQDWAAQEPHRHSIFTPETNPRAGLEKNYCRNPDGDVGGPWCYTTNPRKLYDYCDVPQCAAPSFDCGKPQVEPKKCPGRVVGGCVAHPHSWPWQVSLRTRFGMHFCGGTLISPEWVLTAAHCLEKSPRPSSYKVILGAHQEVNLEPHVQEIEVSRLFLEPTRKDIALLKLSSPAVITDKVIPACLPSPNYVVADRTECFITGWGETQGTFGAGLLKEAQLPVIENKVCNRYEFLNGRVQSTELCAGHLAGGTDSCQGDSGGPLVCFEKDKYILQGVTSWGLGCARPNKPGVYVRVSRFVTWIEGVMRNN,plasmin activity assay with enolase-blocking antibodies,The data is consistent with surface-expressed alpha-enolase being one of multiple PLG receptors on E. faecalis
